Target: mTOR^ΔN-mLST8 complex (human) (UniProt P42345)

KM of S6K1^367–404 phosphorylation by mTOR^ΔN-mLST8: 430 µM
Substance: S6K1^367–404 wild type (from UniProt P23443-2 367-404) (peptide)
